Three substances from article doi:10.1101/2025.03.06.641855 can be followed below.

In assay [1] the target is wt-OppA, periplasmic binding protein of the oligopeptide permease (Opp) transporter (E. coli (K12)) (UniProt P23843). In words: MST.
The target in assay [2] is OppA-ev2 (evolved OppA variant with seven mutations) (E. coli (K12)) (UniProt P23843). In words: MST.

The Kd is the constant that tells how readily two partners part at equilibrium. Higher therefore signals weaker binding. Turning to SisoK, isopeptide-linked dipeptide, the Kd in assay [1] and in assay [2] was 300 µM each time.
As for G-SisoK, isopeptide-linked tripeptide, the Kd is 50 µM in assay [1] and 37 µM in assay [2].
The matching figures for linear GSK tripeptide: 71 µM and 275 µM.
